± gives the uncertainty stated by the source.
Assay: amyloid nucleation score (Sup35N fusion, yeast selection) (log enrichment); library NNK1; higher = more nucleation; inactive = no reads after selection
Method in brief: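 In psi-negative yeast, Sup35N fusions carrying peptides of 20 random codons were induced with 100 μM copper sulfate for 24 hours. The cells then grew 7 days at 30°C on medium lacking adenine and uracil, and plasmid inserts from input and output were Illumina-sequenced, excluding sequences with under 100 input reads. Nucleation score is the DiMSum log enrichment of output over input reads, centred on the mode score of non-aggregating sequences.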

Substance | amyloid nucleation score
GMYLYIPLSITFTVEHTVVA | 5.02 ± 0.093
GNAWCGLGSKKYCVWLYHYS | 0.214 ± 0.28
GNFCFPMAYTGLVFGEMLSF | 0.1 ± 0.24
GNGFVL | 0.999 ± 0.45
GNIFAYGT | -0.611 ± 0.76
GNIFWRMLWFVGYEKGSLLF | -0.022 ± 0.36
GNKPLVVHGSGGICKLCE | -0.147 ± 0.38
GNLVTCNSKYTRMEG | 0.166 ± 0.49
GNSWTSVVLHYFGSFSWGVT | inactive
GNTWNIMFNICCLQGIECCL | 7.349 ± 0.051
GNWAVGSIRDSCICGYIELR | 6.915 ± 0.046
GNWGNGSGTCLCTSSFYCRL | 2.78 ± 0.14
GPDRCDRWEPRCCAKSRRER | -0.061 ± 0.42
GPQIGG | 1.38 ± 0.17
GPRYRLLLWECCRHDLSLSC | 0.72 ± 0.43
GPTYVSSFLELWRNTSHDFC | -0.402 ± 0.88
GPWGQICSDTFYLLFVWVSW | 0.133 ± 0.37
GQFAFNMKNSLMNVVGVILE | inactive
GQLSCLSFNVVTGRYKAIAF | 0.629 ± 0.38
GQYVWADLINVVRLWVFVSR | 0.503 ± 0.87
GRATMGRGRCNLFGHKGHGH | 0.046 ± 0.55
GRFLHINS | inactive

Substance | amyloid nucleation score
GRILYEAYTPVERVYAWCSA | inactive
GRIQCHYGLSVYNGFESGTG | 0.279 ± 0.83
GRKRYKRATHH | -0.593 ± 1.5
GRMNKNYA | inactive
GRNWLVGCVAQWHWSSLSWS | -1.11 ± 2.7
GRPNATIKNLVIFSEMFYSL | 4.68 ± 0.063
GRVDWMCEYLKLMRSVGWSR | 0.545 ± 0.41
GRYWSCEATRLCKYFGCTMR | -0.212 ± 0.48
GSARYCSYCWRTSDITWIIH | 1.71 ± 0.13
GSCGKGHLSPRALLFTHSWQ | -0.446 ± 0.61
GSCLISRT | 1.02 ± 0.5
GSCVCECGWIFTARGVRVFK | -0.346 ± 0.42
GSDQLSTT | -0.338 ± 0.43
GSFLRGPHPKNY | 0.853 ± 0.66
GSGNVRL | -1.61 ± 2.4
GSGVDSRVSCKKFILSLVGA | -0.39 ± 1.7
GSGWEGSTVRFSQASFGELW | 0.328 ± 0.97
GSHSGVFRVIKYQILFEVGM | inactive
GSIWED | -0.778 ± 0.64
GSKSFPSSGSSMQAAGTSSG | -0.069 ± 0.36
GSLLICEWLRFSRGRGVRSY | 1.11 ± 0.79
GSMNVECDRDRDRYNVCHYR | -0.569 ± 0.39

Substance | amyloid nucleation score
GSRRDRISLRSQRVCILEKG | 1.95 ± 0.6
GSSWYNNPVQGILGGYNL | -0.348 ± 0.47
GSTFVGAIKQPIVCWIESGN | -1.32 ± 1.2
GSTTSLRFTVLQTFLFSCNN | -0.663 ± 0.8
GSTYR | -0.482 ± 0.51
GTCPSRPVSV | -0.139 ± 0.47
GTGSSAVDVFSGLMCGTDVL | -0.145 ± 0.46
GTHTEYSQKTVLVDIFTELM | inactive
GTLGSWSIIISLIRHSECLC | -0.659 ± 0.46
GTLVLYFCGVC | 6.62 ± 0.059
GTMDMSQGYSQVCLDFIVHG | -0.626 ± 1.2
GTRCMALALGLHIYIFIRGG | -0.161 ± 0.46
GTRQSDHYCVSTGLCV | 0.352 ± 0.36
GTRWSHTWWPGTNLMLCVQG | -0.453 ± 0.26
GTSMRFGGGVIF | -0.721 ± 0.49
GTVSGYYVRVGNFAMYYQAY | 1.91 ± 0.17
GVADMAVRGQCSHYSVAWST | -1.07 ± 0.82
GVCWRDYGLEAGTGAQVQQC | 3.03 ± 0.15
GVDHIGLGTEEYNQSYLGSG | -0.505 ± 0.53
GVHRWVRSARLEAVHFGAGW | 1.45 ± 0.84
GVLSICGML | -0.401 ± 0.31
GVRYQALFLSAVL | 0.09 ± 0.21

Substance | amyloid nucleation score
GVSKCQDEYSGLGNRNYM | -1.28 ± 0.59
GVSQNKCMPVWCVR | 0.504 ± 0.38
GVTYNLK | -0.685 ± 1
GVVFPWSVLMFSCSSCLAVP | 0.605 ± 0.61
GVVGVNSADLFNGKIVIKFS | 1.81 ± 0.2
GWAGRVCNRGKTWDIDLRQR | -0.7 ± 0.34
GWCFVSRDLVNYLMCVTAGV | -1.02 ± 0.88
GWSLNQVVCCALCSVSRRKR | 0.553 ± 0.48
GWSSFWGPLVCARVWRRIGE | 0.433 ± 0.54
GYIVYDIMYAIFYKQTVYLI | inactive
GYIYLFGARFVVEEFGIVFW | 0.678 ± 0.93
GYKMAYNFCDEKEGLNWRVG | -0.257 ± 0.52
GYYIEMLYFMEALDIS | inactive
HAAYTEVFILLLNDNILPHL | -0.393 ± 0.45
HAFSSCDYSHYVFGMRPFDL | 1.51 ± 0.15
HAMISWDISNVCVYWHMCPW | 0.12 ± 0.33
HCVTFACC | 0.523 ± 0.53
HDSLKFVKQSFFCPEVYIPG | -0.596 ± 0.47
HEFYSVLMGHFVWLQPWETR | 0.839 ± 1.1

Reference: the supplement of paper PMC12042874
